Assay results: patent publication US20250243260A1 (ALPINE IMMUNE SCIENCES, published 2025)

Columns and labels:
human PD-L1 [1] = target: T1, human PD-L1 (human, UniProt Q9NZQ7 19-290); assay: flow cytometry, SCC152 cells transduced with human PD-L1, anti-human Fc detection
T1 construct: whole, on cells
Method: (§1) Binding affinity to CD28 was determined using primary human T cells which endogenously express CD28. Binding to PD-L1 was determined using SCC152 cells transduced with human PD-L1. Binding to CTLA-4 was measured using Chinese hamster ovary (CHO) cells stably transduced to express human CTLA-4.
(§2) For staining and analysis by flow cytometry, 75,000 human T cells, SCC152/PD-L1 cells, or CHO/CTLA-4 cells were plated in 96-well round-bottom plates. Cells were spun down and resuspended in staining buffer (PBS (phosphate buffered saline), 1% BSA (bovine serum albumin), 1 mM EDTA, and 0.1% sodium azide) for 20 minutes to block non-specific binding. Afterwards, cells were centrifuged, stain buffer aspirated, and then resuspended in 50 μL of a 1:5 serial dilution of each CD80-Fc candidate variant starting at 100 nM ending at 0.8 nM. Primary staining was performed on ice for 60 minutes, before washing cells in […] staining buffer three times. PE-conjugated anti-human Fc (Jackson ImmunoResearch, USA) was diluted 1:250 in 50 μL staining buffer and added to cells and incubated another 30 minutes at 4° C. Cells were washed two times in 150 μL stain buffer and then fixed in 2% formaldehyde/PBS for 5 minutes at room temperature. Samples were analyzed CytoFLEX LX flow cytometer (Beckman Coulter, USA). Median Fluorescence Intensity (MFI) was calculated for each cell type using the CytExpert software from Beckman Coulter.
(§3) Binding assays were carried out to assess the specificity and affinity of multivalent proteins to cell-expressed CTLA-4, CD28, and PD-L1 counter structures.

human PD-L1 [2] = target: T1, human PD-L1; assay: flow cytometry, SCC152 cells transduced with human PD-L1; MFI against WT CD80 ECD-Fc
Method: as §1, §2, §3

T1 sequence (Q9NZQ7 19-290): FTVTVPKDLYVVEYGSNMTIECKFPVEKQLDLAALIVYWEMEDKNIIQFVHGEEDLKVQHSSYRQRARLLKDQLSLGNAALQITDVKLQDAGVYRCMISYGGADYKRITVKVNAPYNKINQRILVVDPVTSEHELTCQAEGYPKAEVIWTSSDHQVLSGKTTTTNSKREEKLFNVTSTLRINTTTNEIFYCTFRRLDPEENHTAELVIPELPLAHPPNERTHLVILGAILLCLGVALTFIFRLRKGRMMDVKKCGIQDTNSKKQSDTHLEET

Anti-Human Fc (MFI) at 0.8 nM (human PD-L1 [1]): 4750 MFI
Anti-Human Fc (MFI) at 4 nM (human PD-L1 [1]): 6410 MFI
Anti-Human Fc (MFI) at 20 nM (human PD-L1 [1]): 7100 MFI
Anti-Human Fc (MFI) at 100 nM (human PD-L1 [1]): 7810 MFI
Fold change vs WT CD80 @20 nM (human PD-L1 [2]): 10.4 fold
B1: CD80-Fc-CD80_341 (CD80_197 V11Y/E35D/Y87Q/T101R) (Fc fusion)
chain: VIHVTKEVKEYATLSCGHNVSVEELAQTRIYWQKDKKMVLTMMSGDMNIWPEYKNRTIFDITNNLSIVILALRPSDEGTYECVVLKQEKDAFKREHLAEVRLSVKADGSGGGGSPCPPCPAPEFLGGPSVFLFPPKPKDTLMISRTPEVTCVVVDVSQEDPEVQFNWYVDGVEVHNAKTKPREEQFNSTYRVVSVLTVLHQDWLNGKEYKCKVSNKGLPSSIEKTISKAKGQPREPQVYTLPPSQEEMTKNQVSLTCLVKGFYPSDIAVEWESNGQPENNYKTTPPVLDSDGSFFLYSRLTVDKSRWQEGNVFSCSVMHEALHNHYTQKSLSLSLGGGGGSGGGGSGGGGSVIHVTKEVKEYATLSCGYNVSVEELAQTRIYWQKDKKMVLTMMSGDMNIWPEYKNRTIFDITNNLSIVILALRPSDEGTYECVVLKQEKDAFKREHLAEVRLSVKAD
notes: tetravalent
